This note sets out measurements from US20260234242A1 (HAINAN SIMCERE ZAIMING PHARMACEUTICAL, published 2026).

The target of experiment [1] is T1, human CDH6 on tumor cells (OVCAR3 cells, PA-1 cells) (human, UniProt P55285 54-790).
T1 sequence: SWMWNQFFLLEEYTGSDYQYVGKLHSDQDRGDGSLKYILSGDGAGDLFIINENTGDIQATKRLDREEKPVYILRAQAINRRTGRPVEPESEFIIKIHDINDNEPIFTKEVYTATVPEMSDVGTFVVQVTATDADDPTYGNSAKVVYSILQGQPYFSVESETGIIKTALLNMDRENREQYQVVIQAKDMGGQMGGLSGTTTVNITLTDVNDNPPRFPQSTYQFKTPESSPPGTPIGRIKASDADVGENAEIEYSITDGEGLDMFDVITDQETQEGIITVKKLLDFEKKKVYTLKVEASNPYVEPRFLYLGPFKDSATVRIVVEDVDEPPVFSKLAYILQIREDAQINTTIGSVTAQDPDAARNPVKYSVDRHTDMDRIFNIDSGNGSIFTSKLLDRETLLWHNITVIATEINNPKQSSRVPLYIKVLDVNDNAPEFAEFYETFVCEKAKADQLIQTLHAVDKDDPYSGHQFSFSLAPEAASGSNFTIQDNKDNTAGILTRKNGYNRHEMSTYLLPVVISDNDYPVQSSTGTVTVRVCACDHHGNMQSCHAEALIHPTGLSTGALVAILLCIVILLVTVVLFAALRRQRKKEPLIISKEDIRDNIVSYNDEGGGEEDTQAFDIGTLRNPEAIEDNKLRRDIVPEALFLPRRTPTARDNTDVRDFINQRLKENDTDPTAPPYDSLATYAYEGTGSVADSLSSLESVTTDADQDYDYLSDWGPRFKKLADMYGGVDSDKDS
The experiment in a line: FACS, PA-1 cells. On the procedure:
OVCAR3 cells with high expression of CDH6 and PA-1 cells with moderate expression of CDH6 were used to detect the binding activity of the antibodies to the cells. […] The cells were washed once with PBS, counted, resuspended to 2×10⁶ cells/mL in an FACS buffer (PBS+2% FBS), and then added to a 96-well plate at 50 μL/well. The chimeric antibodies were diluted with FACS buffer (PBS+2% FBS) and added to the 96-well plate at 50 μL/well, and the plate was incubated at 4° C. for 1 h. […] The dilution was added to the 96-well plate at 50 μL/well, and the plate was incubated at 4° C. for 1 h. After the plates were centrifuged and washed 2 times with PBS, the cells were resuspended in an FACS buffer. The mean fluorescence intensity (MFI) was measured using FACS Canton II (BD). Analysis was performed by the GraphPad Prism software, data were fitted, and EC50 values were calculated. The chimeric antibodies tested had strong binding to both OVCAR3 cells and PA-1 cells.
According to the above sequences, heavy chain (HC) and light chain (LC) plasmids were constructed (the nucleic acid sequences encoding the VH and VL of the antibodies were recombined into an expression vector carrying a signal peptide (SEQ ID NO: 132, […]) and a heavy chain constant region/light chain constant region sequence to obtain recombinant plasmids expressing VH-CH1-Fc/VL-CL). According to the expression and purification methods in Example 2, the hCDH6-14 humanized antibodies were obtained, and the binding activity of the humanized antibodies was detected by ELISA and FACS (see 2.2 and 2.3 for the method).

Experiment [2] addresses T2, his-tagged human CDH6 extracellular region protein (hCDH6 ECD-his) (human, UniProt P55285 19-615).
T2 construct: also called Human CDH6-his; hCDH6-his; not shown: his tag
T2 sequence: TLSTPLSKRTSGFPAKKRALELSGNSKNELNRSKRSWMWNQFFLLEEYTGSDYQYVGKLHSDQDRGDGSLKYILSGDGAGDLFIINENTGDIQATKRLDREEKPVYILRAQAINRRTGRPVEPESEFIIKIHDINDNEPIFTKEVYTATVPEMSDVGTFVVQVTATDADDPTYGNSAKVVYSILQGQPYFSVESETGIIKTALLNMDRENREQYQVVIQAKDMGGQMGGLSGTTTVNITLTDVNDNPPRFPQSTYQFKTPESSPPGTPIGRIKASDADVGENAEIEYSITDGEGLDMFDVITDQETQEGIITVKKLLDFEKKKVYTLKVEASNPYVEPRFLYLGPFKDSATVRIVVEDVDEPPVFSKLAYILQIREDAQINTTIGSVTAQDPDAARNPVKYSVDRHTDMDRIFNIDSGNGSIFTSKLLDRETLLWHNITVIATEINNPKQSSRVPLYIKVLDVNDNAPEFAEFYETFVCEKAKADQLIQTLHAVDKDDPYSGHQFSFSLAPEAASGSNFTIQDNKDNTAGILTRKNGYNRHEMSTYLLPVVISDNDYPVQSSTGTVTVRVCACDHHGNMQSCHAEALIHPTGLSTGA
The experiment in a line: ELISA, coated antigen. As to the method:
Human CDH6 protein (hCDH6 ECD-his, conventionally synthesized), monkey CDH6 protein (cynoCDH6 ECD-his, conventionally synthesized; the cynoCDH6 ECD sequence was derived from Uniprot #A0A2K5TW62 (19-615)), and murine CDH6 protein (mCDH6 ECD-his, conventionally synthesized; the mCDH6 ECD sequence was derived from Uniprot #P97326 (19-615)) were diluted with PBS to a final concentration of 1 μg/mL, and added to a 96-well ELISA plate at 100 μL/well. The plate was incubated at 4° C. overnight. The next day, the plate was washed 3 times with a plate washing solution (PBS+0.01% (v/v) Tween 20), and a blocking buffer (PBS+0.01% (v/v) Tween 20+2% (w/w) BSA) was added for blocking at room temperature for 2 h. The blocking buffer was discarded, and the plate was washed 3 times. The chimeric antibodies were diluted with 1% BSA+PBS (purchased from Cytiva, Cat. No. SH30264.01) and added to the 96-well plate at 50 μL/well. After incubation at 37° C. for 2 h, the plate was washed 3 times with a plate washing solution. […] The plate was incubated at 37° C. for 1 h and then washed 5 times with a plate washing solution. A TMB substrate (purchased from Seracare, Cat. No. 5120-0077) was added at 50 μL/well and incubated at room temperature for 10 min, then a stop solution (1.0 N HCl) was added at 50 μL/well. OD450 nm values were read using a microplate reader (Biotek). Analysis was performed by the GraphPad Prism software, data were fitted, and EC50 values were calculated. The chimeric antibodies tested all had strong binding to the human CDH6 protein, the monkey CDH6 protein, and the murine CDH6 protein.
According to the above sequences, heavy chain (HC) and light chain (LC) plasmids were constructed (the nucleic acid sequences encoding the VH and VL of the antibodies were recombined into an expression vector carrying a signal peptide (SEQ ID NO: 132, […]) and a heavy chain constant region/light chain constant region sequence to obtain recombinant plasmids expressing VH-CH1-Fc/VL-CL).
A general note: ELISA stands for enzyme-linked immunosorbent assay.

B1: hCDH6-14-H5L2 (antibody, V domains shown)
VH: EVQLQQSGAEVKKPGASVKVSCKASGYTFTDNYINWVRQAPGQRLEWMGWIYPGTGNSYYNEKFKGRVTITVDTSASTAYMELSSLRSEDTAVYYCASSYGDSFDYWGQGTTVTVSS
VL: DIQMTQSPSSLSASVGDRVTITCRASQDIRNYLNWYQQKPGGAPKLLISYTSRLHSGVPSRFSGSGSGTDFTFTISSLQPEDIATYYCQQYSQLPWTFGGGTKVEIK
notes: Humanized
B1: in experiment [1], the EC50 came to 0.23 nM and the “Max MFI” value stood at 3320 MFI. In experiment [2], the EC50 is 0.109 nM and the “Max OD450” value was found to be 2.58 OD450.

B2: hCDH6-14-H1L3 (antibody, V domains shown)
VH: EVQLVQSGAEVKKPGASVKVSCKASGYTFTDNYINWVRQAPGQRLEWMGWIYPGTGNSYYNEKFKGRVTITVDTSASTAYMELSSLRSEDTAVYYCASSYGDSFDYWGQGTTVTVSS
VL: DIVMTQSPDSLAVSLGERATINCRASQDIRNYLNWYQQKPGQTPKLLISYTSRLHSGVPDRFSGSGSGTDFTLTISSLQAEDVAVYYCQQYSQLPWTFGGGTKVEIK
notes: Humanized
As to B2, in experiment [1], the concentration for a half-maximal effect (EC50) worked out at 0.27 nM and the “Max MFI” value was 3580 MFI. In experiment [2], the 50% effective concentration (EC50) is 0.056 nM and the “Max OD450” value was found to be 2.68 OD450.

B3: hCDH6-14-H4L3 (antibody, V domains shown)
VH: EVQLVQSGAEVKKPGASVKVSCKASGYTFTDNYINWVRQAPGQGLEWMGWIYPGTGNSYYNEKFKGRVTITVDTSASTAYMELSSLRSEDTAVYYCASSYGDSFDYWGQGTTVTVSS
VL: DIVMTQSPDSLAVSLGERATINCRASQDIRNYLNWYQQKPGQTPKLLISYTSRLHSGVPDRFSGSGSGTDFTLTISSLQAEDVAVYYCQQYSQLPWTFGGGTKVEIK
notes: Humanized
Turning to B3, in experiment [1], the response was half-maximal at 0.27 nM (EC50) and the “Max MFI” value came out at 3870 MFI. In addition, in experiment [2], the EC50 came out at 0.084 nM and the “Max OD450” value is 2.67 OD450.

B4: hCDH6-14-H5L3 (antibody, V domains shown)
VH: EVQLQQSGAEVKKPGASVKVSCKASGYTFTDNYINWVRQAPGQRLEWMGWIYPGTGNSYYNEKFKGRVTITVDTSASTAYMELSSLRSEDTAVYYCASSYGDSFDYWGQGTTVTVSS
VL: DIVMTQSPDSLAVSLGERATINCRASQDIRNYLNWYQQKPGQTPKLLISYTSRLHSGVPDRFSGSGSGTDFTLTISSLQAEDVAVYYCQQYSQLPWTFGGGTKVEIK
notes: Humanized
For B4, in experiment [1], the midpoint of the response, the EC50, lay at 0.21 nM and the “Max MFI” value came out at 3600 MFI. In experiment [2], it took 0.092 nM to reach a half-maximal effect (EC50) and the “Max OD450” value came to 2.72 OD450.

B5: hCDH6-14-H2L3 (antibody, V domains shown)
VH: EIQLVQSGAEVKKPGASVKVSCKASGYTFTDNYINWVRQAPGQRLEWMGWIYPGTGNSYYNEKFKGRVTITVDTSASTAYMELSSLRSEDTAVYYCASSYGDSFDYWGQGTTVTVSS
VL: DIVMTQSPDSLAVSLGERATINCRASQDIRNYLNWYQQKPGQTPKLLISYTSRLHSGVPDRFSGSGSGTDFTLTISSLQAEDVAVYYCQQYSQLPWTFGGGTKVEIK
notes: Humanized
As for B5, in experiment [1], the concentration giving a half-maximal response (EC50) was 0.22 nM and the “Max MFI” value was 3780 MFI. In addition, in experiment [2], a half-maximal response (EC50) required 0.09 nM and the “Max OD450” value stood at 2.48 OD450.

B6: hCDH6-14-H3L3 (antibody, V domains shown)
VH: EIQLVQSGAEVKKPGASVKVSCKASGYTFTDNYINWVRQAPGQRLEWMGWIYPGTGNSYYNEKFKGRVTLTVDTSASTAYMELSSLRSEDTAVYYCASSYGDSFDYWGQGTTVTVSS
VL: DIVMTQSPDSLAVSLGERATINCRASQDIRNYLNWYQQKPGQTPKLLISYTSRLHSGVPDRFSGSGSGTDFTLTISSLQAEDVAVYYCQQYSQLPWTFGGGTKVEIK
notes: Humanized
With B6, in experiment [1], the concentration giving a half-maximal response (EC50) came out at 0.19 nM and the “Max MFI” value stood at 3470 MFI. Further, in experiment [2], the concentration for a half-maximal effect (EC50) amounted to 0.113 nM and the “Max OD450” value was 2.56 OD450.

B7: hCDH6-14-H6L1 (antibody, V domains shown)
VH: EVQLVQSGAEVKKPGASVKVSCKASGYTFTDNYINWVRQAPGQRLEWMGWIYPGTGNSYYNEKFKGRVTITVDTSASTAYMELSSLRSEDTAVYLCASSYGDSFDYWGQGTTVTVSS
VL: DIQMTQSPSSLSASVGDRVTITCRASQDIRNYLNWYQQKPGKAFKLLISYTSRLHSGVPSRFSGSGSGTDFTFTISSLQPEDIATYYCQQYSQLPWTFGGGTKVEIK
notes: Humanized
In the case of B7, in experiment [1], the response was half-maximal at 0.24 nM (EC50) and the “Max MFI” value worked out at 3700 MFI. In addition, in experiment [2], the 50% effective concentration (EC50) worked out at 0.067 nM and the “Max OD450” value stood at 2.7 OD450.

B8: hCDH6-14-H6L2 (antibody, V domains shown)
VH: EVQLVQSGAEVKKPGASVKVSCKASGYTFTDNYINWVRQAPGQRLEWMGWIYPGTGNSYYNEKFKGRVTITVDTSASTAYMELSSLRSEDTAVYLCASSYGDSFDYWGQGTTVTVSS
VL: DIQMTQSPSSLSASVGDRVTITCRASQDIRNYLNWYQQKPGGAPKLLISYTSRLHSGVPSRFSGSGSGTDFTFTISSLQPEDIATYYCQQYSQLPWTFGGGTKVEIK
notes: Humanized
Turning to B8, in experiment [1], the response was half-maximal at 0.26 nM (EC50) and the “Max MFI” value was found to be 3540 MFI. Besides, in experiment [2], a half-maximal response (EC50) required 0.093 nM and the “Max OD450” value stood at 2.62 OD450.

As a reminder, the EC50 is the concentration that produces a half-maximal response.
